{"source": "paper PMC4769171", "settings_in_all_cases": "EMSA: 10 mM Tris pH 7.5, 50 mM KCl, 2.5% glycerol, 0.05% Nonidet P-40, 1 ug poly(dI-dC), 5 fmol probe, 20 min RT; AFM buffer not in the material", "key": {"[1]": {"biological_target": "His-SsrB (unphosphorylated);His-H-NS (Salmonella Typhimurium) (UniProt Q7CQM5+P0A1S2)", "assay": "EMSA supershift"}, "[2]": {"biological_target": "T1, His-H-NS (Salmonella Typhimurium) (UniProt P0A1S2)", "T1 sequence": "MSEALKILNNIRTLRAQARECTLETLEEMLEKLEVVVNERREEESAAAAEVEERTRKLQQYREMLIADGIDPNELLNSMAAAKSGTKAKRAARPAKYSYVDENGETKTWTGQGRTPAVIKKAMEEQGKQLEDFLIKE", "assay": "EMSA"}, "[3]": {"biological_target": "T2, K179A His-SsrB K179A (UniProt Q7CQM5)", "T2 sequence": "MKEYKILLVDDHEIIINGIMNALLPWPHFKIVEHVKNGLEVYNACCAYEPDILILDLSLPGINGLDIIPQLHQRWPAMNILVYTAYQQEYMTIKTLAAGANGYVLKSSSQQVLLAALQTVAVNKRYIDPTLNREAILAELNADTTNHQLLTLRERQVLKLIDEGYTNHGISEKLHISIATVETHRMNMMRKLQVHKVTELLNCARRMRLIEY", "assay": "EMSA"}, "[4]": {"biological_target": "T3, His-SsrB (unphosphorylated) (UniProt Q7CQM5)", "T3 sequence": "T2 sequence with A179K", "assay": "EMSA"}}, "note": "Where a chain is given by its changes, count along the chain named."}
{"sequence": "AATATTTTTCTCTTTCTGGATAATGGGCTATTTCAACCCACAGCAGTGCAACATCTGTCAGTACTTCTGGTGCCTTTATTTTATGGGGGCAGCTGTCAGATGTGCGATTAAAAAAAGTGGAGTTTCATCA (double strand) [csgD122]", "values": [{"measurement": "binding", "setting": "[1]", "value": "binds"}, {"measurement": "binding", "setting": "[2]", "value": "binds"}, {"measurement": "binding", "setting": "[3]", "value": "no binding"}, {"measurement": "binding", "setting": "[4]", "value": "binds"}]}
